Experimental data from article PMC2809820.

T1: Ets-1 (rhEts-1) (human, UniProt P14921 1-441)
T1 sequence: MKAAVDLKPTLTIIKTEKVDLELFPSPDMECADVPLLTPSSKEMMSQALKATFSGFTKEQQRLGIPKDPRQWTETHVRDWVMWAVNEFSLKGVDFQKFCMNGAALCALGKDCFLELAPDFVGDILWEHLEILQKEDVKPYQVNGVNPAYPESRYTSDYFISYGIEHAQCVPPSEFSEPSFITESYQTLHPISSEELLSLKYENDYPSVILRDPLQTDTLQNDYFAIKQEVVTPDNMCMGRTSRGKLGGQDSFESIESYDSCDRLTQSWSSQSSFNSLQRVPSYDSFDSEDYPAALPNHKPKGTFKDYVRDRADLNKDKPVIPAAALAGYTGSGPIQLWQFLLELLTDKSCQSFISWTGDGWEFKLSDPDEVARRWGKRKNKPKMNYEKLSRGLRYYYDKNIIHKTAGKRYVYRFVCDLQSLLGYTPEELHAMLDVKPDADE


Assays:
Ets-1 (rhEts-1) [1] = target: T1, Ets-1 (rhEts-1); assay: competition
Ets-1 (rhEts-1) [2] = target: T1, Ets-1 (rhEts-1); assay: competition; remark: listed apart in the source
Ets-1 (rhEts-1) [3] = target: T1, Ets-1 (rhEts-1); assay: EMSA

Binder	binding result (Ets-1 (rhEts-1) [1])	binding result (Ets-1 (rhEts-1) [2])	also measured
IL4P.1 (dsDNA) DNA 1: GATTTCACAGGAACATTTTAC DNA 2: GTAAAATGTTCCTGTGAAATC	no binding	–	–
IL4P.2 (dsDNA) DNA 1: TTTTCTCCTGGAAGAGAGGTG DNA 2: CACCTCTCTTCCAGGAGAAAA	no binding	–	–
IL13P (dsDNA) DNA 1: GTTCGGGGAGGAAGTGGGTAG DNA 2: CTACCCACTTCCTCCCCGAAC	–	binds	–
SC1_ETS1 (dsDNA) DNA 1: CGGCCAAGCCGGAAGTGAGTGCC DNA 2: GGCACTCACTTCCGGCTTGGCCG	–	–	binding result (Ets-1 (rhEts-1) [3]): binds
RHS5 (dsDNA) DNA 1: GGTAACACAGGAAGTCAGCAG DNA 2: CTGCTGACTTCCTGTGTTACC	–	binds	–
